In patent publication US6759384 (AVENTIS PHARMACEUTICALS, dated 2004):
Starred links: 1 amine or outer side, 2 acyl side, 3 side chain; linkers in the order of their positions; H or OH if unused. Non-standard residues stand in square brackets, D forms with d. *: point of attachment. (iBu)Phe(4-CN) = N-isobutyl-4-cyano-L-phenylalanine, CC(C)CN([C@@H](Cc1ccc(C#N)cc1)C(=O)[*:2])[*:1]; Phe(3-I,4-NH2) = 4-amino-3-iodo-L-phenylalanine, O=C([C@H](Cc1ccc(N[*:3])c(I)c1)N[*:1])[*:2]; (Chx-CH2)Y = N-(cyclohexylmethyl)-Tyr, O=C([C@H](Cc1ccc(O[*:3])cc1)N(CC1CCCCC1)[*:1])[*:2]; 4‑isoquinolinoyl = 4-isoquinolinoyl N-terminal acyl group, O=C(c1cncc2ccccc12)*; dpAph = D-4-amidinophenylalanine, N=C(N)c1ccc(C[C@@H](N[*:1])C(=O)[*:2])cc1; 2‑pyridonyl = 2-pyridonyl N-terminal group; Phe(4-NH2) = Nc1ccc(C[C@H](N)C(=O)O)cc1; 2‑naphthylmethyl = c1ccc2cc(C*)ccc2c1; Quinaldoyl = O=C(c1ccc2ccccc2n1)*; NMeL = CN[C@@H](CC(C)C)C(=O)O; Chg = N[C@H](C(=O)O)C1CCCCC1; Nicotinoyl = O=C(c1cccnc1)*; Bz = O=C(c1ccccc1)*

B1: (3-pyridoyl)-Phe(pNH2)-Chg-Arg-Leu-Pro-NH2 (peptide)
peptide: Nicotinoyl-[Phe(4-NH2)][Chg]RLP-NH2
SMILES: CC(C)C[C@H](NC(=O)[C@H](CCCNC(=N)N)NC(=O)[C@@H](NC(=O)[C@H](Cc1ccc(N)cc1)NC(=O)c1cccnc1)C1CCCCC1)C(=O)N1CCC[C@H]1C(N)=O
B2: (2-naphythl-CH2)Phe(pNH2)-Chg-Arg-Leu-Pro-NH2 (peptide)
peptide: {2‑naphthylmethyl}-[Phe(4-NH2)][Chg]RLP-NH2
SMILES: CC(C)C[C@H](NC(=O)[C@H](CCCNC(=N)N)NC(=O)[C@@H](NC(=O)[C@H](Cc1ccc(N)cc1)NCc1ccc2ccccc2c1)C1CCCCC1)C(=O)N1CCC[C@H]1C(N)=O
B3: Ac-Phe(pNH2)-Chg-Arg-(Me)Leu-Pro-NH2 (peptide)
peptide: Ac-[Phe(4-NH2)][Chg]R[NMeL]P-NH2
SMILES: CC(=O)N[C@@H](Cc1ccc(N)cc1)C(=O)N[C@H](C(=O)N[C@@H](CCCNC(=N)N)C(=O)N(C)[C@@H](CC(C)C)C(=O)N1CCC[C@H]1C(N)=O)C1CCCCC1
B4: (4-isoquinolinoyl)-Phe(pNH2)-Chg-Arg-Leu-Pro-NH2 (peptide)
peptide: {4‑isoquinolinoyl}-[Phe(4-NH2)][Chg]RLP-NH2
SMILES: CC(C)C[C@H](NC(=O)[C@H](CCCNC(=N)N)NC(=O)[C@@H](NC(=O)[C@H](Cc1ccc(N)cc1)NC(=O)c1cncc2ccccc12)C1CCCCC1)C(=O)N1CCC[C@H]1C(N)=O
B5: (Benzoyl)-Phe(pNH2)-Chg-Arg-Leu-Pro-NH2 (peptide)
peptide: Bz-[Phe(4-NH2)][Chg]RLP-NH2
SMILES: CC(C)C[C@H](NC(=O)[C@H](CCCNC(=N)N)NC(=O)[C@@H](NC(=O)[C@H](Cc1ccc(N)cc1)NC(=O)c1ccccc1)C1CCCCC1)C(=O)N1CCC[C@H]1C(N)=O
notes: also called Bz-F(pNH2)-Chg-R-L-P-NH2
B6: (2-quinolinoyl)-Phe(NH2)-Chg-Arg-Leu-Pro-NH2 (peptide)
peptide: Quinaldoyl-F[Chg]RLP-NH2
modifications: not fully specified (residue 1); printed as (2-quinolinoyl)-Phe(NH2)-Chg-Arg-Leu-Pro-NH2
B7: Ac-Phe(3I,4NH2)-Chg-Arg-Leu-Pro-NH2 (peptide)
peptide: Ac-[Phe(3-I,4-NH2)][Chg]RLP-NH2
SMILES: CC(=O)N[C@@H](Cc1ccc(N)c(I)c1)C(=O)N[C@H](C(=O)N[C@@H](CCCNC(=N)N)C(=O)N[C@@H](CC(C)C)C(=O)N1CCC[C@H]1C(N)=O)C1CCCCC1

Molecular target: T1, human factor Xa (Enzyme Research Laboratories, Inc.) (human, UniProt P00742 41-179; P00742 235-488, limits assumed)
T1 sequence (P00742 41-179 limits assumed, chain 1 of 2): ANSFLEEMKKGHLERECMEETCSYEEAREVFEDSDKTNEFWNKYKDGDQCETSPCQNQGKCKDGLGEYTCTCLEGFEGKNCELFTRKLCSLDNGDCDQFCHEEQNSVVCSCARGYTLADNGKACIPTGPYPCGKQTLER
T1 sequence (P00742 235-488 limits assumed, chain 2 of 2): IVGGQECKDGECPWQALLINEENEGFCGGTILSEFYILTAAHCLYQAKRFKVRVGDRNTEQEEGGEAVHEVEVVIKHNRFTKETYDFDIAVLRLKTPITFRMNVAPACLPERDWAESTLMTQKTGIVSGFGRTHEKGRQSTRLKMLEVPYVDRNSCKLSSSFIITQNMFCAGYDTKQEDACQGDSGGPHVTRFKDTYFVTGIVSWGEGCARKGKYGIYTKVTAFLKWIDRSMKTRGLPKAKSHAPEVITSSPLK
Test: chromogenic FXa inhibition
Outline: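 Human FXa (0.5 nM) preincubated 10 min with inhibitor in TBS-P (pH 7.8, 200 mM NaCl, PEG-8000), then S-2765 added (140 μM). Initial hydrolysis rate read at 405 nm, 25° C.; IC50 by linear regression of relative rate vs log concentration.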

Binder | Ki [µM]
XIRLP (N-term Ac; N-(Et-CH═C(CH3)-CH2) on Y1; Y1=Y(SO3H); C-term NH2) [Ac-(Et-CH═C(CH3)-CH2)Y(SO3H)-I-R-L-P-NH2] | < 100
XIRLP (N-term Ac; N-(3,5,5-Me-3-nHexyl) on Y1; C-term NH2) [Ac-(3,5,5-Me-3-nHexyl)Y-I-R-L-P-NH2] | < 100
XIRLP (N-term Ac; N-(Cyclopropyl-CH2) on Y1; C-term NH2) [Ac-(Cyclopropyl-CH2)Y-I-R-L-P-NH2] | < 100
XIRLP (N-term Ac; N-(Cyclopropyl-CH2) on Y1; Y1=Y(SO3H); C-term NH2) [Ac-(Cyclopropyl-CH2)Y(SO3H)-I-R-L-P-NH2] | < 100
XIRLP (N-term Ac; N-(Et-CH═C(CH3)-CH2) on Y1; C-term NH2) [Ac-(Et-CH═C(CH3)-CH2)Y-I-R-L-P-NH2] | < 100

Molecular target: T1, human factor Xa (Enzyme Research …)
Test: chromogenic FXa inhibition
Remark: another data set of the same source
Protocol: TBS-P buffer (50 mM Tris-Cl, pH 7.8, 200 mM NaCl, 0.05% (w/v) PEG-8000, 0.02% (w/v) NaN_3) was used for this assay. The IC$50$ was determined by combining in appropriate wells of a Costar half-area microtiter plate 25 μl human factor Xa (Enzyme Research Laboratories, Inc.; South Bend Ind.) in TBS-P; 40 μl 10% (v/v) DMSO in TBS-P (uninhibited control) or various concentrations of a peptide to be tested diluted in 10% (v/v) DMSO in TBS-P; and substrate S-2765 (Nα-benzyloxycarbonyl-D-Arg-Gly-L-Arg-p-nitroanilide; Kabi Pharmacia, Inc.; Franklin Ohio) in TBS-P.
The assays were performed by pre-incubating the peptide inhibitor plus enzyme for 10 min, then the assay was initiated by adding substrate to obtain a final volume of 100 μl. The initial velocity of chromogenic substrate hydrolysis was measured by the change in absorbance at 405 nm using a Bio-tek Instruments kinetic plate reader (Ceres UV900HDi) at 25° C. during the linear portion of the time course (usually 1–5 min after addition of substrate). The concentration of inhibitor that caused a 50% decrease in the rate of substrate hydrolysis was predicted by linear regression after plotting the relative rates of hydrolysis (compared to the uninhibited control) versus the log of the peptide concentration. The enzyme concentration was 0.5 nM and substrate concentration was 140 μM.

Binder | Ki [µM]
B1 | < 100
{2‑pyridonyl}-[Phe(4-NH2)][Chg]RLP-NH2 [(2-pyridonyl)Phe(pNH2)Chg-Arg-Leu-Pro-NH2] | < 100
B2 | < 100
B3 | < 100
B4 | < 100
{2‑naphthylsulfonyl}-[Phe(4-NH2)][Chg]RLP-NH2 [(2-naphthylsulfonyl)-Phe(pNH2)-Chg-Arg-Leu-Pro-NH2] | < 100
Ac-[(iBu)Phe(4-CN)][Chg]RLP-NH2 [Ac-(iBu)Phe(pCN)-Chg-Arg-Leu-Pro-NH2] | < 100
B5 | < 100
B6 | < 100
B7 | < 100
Ac-[dpAph]IRLP-NH2 [Ac-D-pAph-Ile-Arg-Leu-Pro-NH2] | < 100
{2‑methylbenzyl}-[Phe(4-NH2)][Chg]RLP-NH2 [(2-methylbenzyl)-Phe(pNH2)-Chg-Arg-Leu-Pro-NH2] | < 100
Ac-[(Chx-CH2)Y][Chg]RLP-NH2 [Ac-(Chx-CH2)Tyr-Chg-Arg-Leu-Pro-NH2] | < 100
